Like-named read-outs stand apart in the source and are kept apart here.
Experiments:
[1] = target: T1, human GPRC5D (G-protein coupled receptor family C group 5 member D) (human, UniProt Q9NZD1 1-345); test: cell-based or functional assay
[2] = target: T1, human GPRC5D (G-protein coupled …); test: cell-based or functional assay; remark: listed apart in the source
cynomolgus FcγRI = target: T2, cynomolgus FcγRI (cynomolgus); test: SPR, receptor captured by anti-his, antibody injected, 1:1 fit
T2 construct: His-tagged (captured on anti-his surface); construct not described; also called cy-RI; FcgRI

cynomolgus FcγRIII = target: T3, cynomolgus FcγRIII (cynomolgus, UniProt Q8SPW2 17-208, limits assumed); test: as above
T3 construct: His-tagged (captured on anti-his surface); construct not described; also called cy-RIII; FcgRIII
T3 sequence (Q8SPW2 17-208 limits assumed): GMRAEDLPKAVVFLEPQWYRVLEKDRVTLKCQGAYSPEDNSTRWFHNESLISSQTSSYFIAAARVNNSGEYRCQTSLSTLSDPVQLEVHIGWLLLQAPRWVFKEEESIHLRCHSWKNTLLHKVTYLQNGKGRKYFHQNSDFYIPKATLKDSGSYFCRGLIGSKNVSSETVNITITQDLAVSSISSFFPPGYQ

human FcγRI = target: T4, human FcγRI (human, UniProt P12314 16-288, limits assumed); test: as above
T4 construct: His-tagged (captured on anti-his surface); construct not described; also called hu-RI; FcgRI
T4 sequence (P12314 16-288 limits assumed): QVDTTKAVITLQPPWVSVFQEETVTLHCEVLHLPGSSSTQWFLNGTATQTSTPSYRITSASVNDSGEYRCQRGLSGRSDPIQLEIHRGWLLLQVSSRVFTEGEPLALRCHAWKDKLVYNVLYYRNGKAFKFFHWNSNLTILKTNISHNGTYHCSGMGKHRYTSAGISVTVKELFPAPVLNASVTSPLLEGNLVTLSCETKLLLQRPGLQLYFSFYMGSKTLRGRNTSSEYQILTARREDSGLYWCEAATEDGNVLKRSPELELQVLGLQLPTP

[3] = target: T5, human FcγRIIIa 158F allele (human, UniProt P08637 17-208); test: as above
T5 construct: His-tagged (captured on anti-his surface); construct not described; also called Hu-RIIIaF; FcgRIIIa
T5 sequence (P08637 17-208 limits assumed): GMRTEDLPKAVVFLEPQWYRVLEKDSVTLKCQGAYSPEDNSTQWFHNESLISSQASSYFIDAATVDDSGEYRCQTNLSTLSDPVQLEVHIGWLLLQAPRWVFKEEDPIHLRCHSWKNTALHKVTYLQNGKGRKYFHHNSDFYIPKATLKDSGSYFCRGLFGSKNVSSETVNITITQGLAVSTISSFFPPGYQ

[4] = target: T6, human FcγRIIIa 158V allele (human, UniProt P08637 17-208); test: as above
T6 construct: His-tagged (captured on anti-his surface); construct not described; The 158V allele differs from the 158F allele at that one position; also called Hu-RIIIa V; Hu-RIIIaV
T6 sequence (P08637 17-208 F176V limits assumed): as the sequence (P08637 17-208 limits assumed) above, with F160V counted along it

cynomolgus FcγRIIa = target: T7, cynomolgus FcγRIIa (cynomolgus); test: SPR, receptor captured by anti-his, antibody injected, steady-state fit
T7 construct: His-tagged (captured on anti-his surface); construct not described; also called cy-RIIa; FcgRIIa

cynomolgus FcγRIIb = target: T8, cynomolgus FcγRIIb (cynomolgus); test: as above
T8 construct: His-tagged (captured on anti-his surface); construct not described; also called cy-RIIb; FcgRIIb

human FcγRIIa = target: T9, human FcγRIIa (human, UniProt P12318 36-218, limits assumed); test: as above
T9 construct: His-tagged (captured on anti-his surface); construct and allele not described; also called hu-RIIa; FcgRIIa
T9 sequence (looked up): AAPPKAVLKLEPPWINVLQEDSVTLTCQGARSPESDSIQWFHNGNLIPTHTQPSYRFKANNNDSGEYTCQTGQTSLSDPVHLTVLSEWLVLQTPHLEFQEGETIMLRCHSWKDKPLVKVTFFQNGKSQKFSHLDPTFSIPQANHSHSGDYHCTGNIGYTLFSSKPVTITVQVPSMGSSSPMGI

human FcγRIIb/c = target: T10, human FcγRIIb/c (human, UniProt P31994 46-217, limits assumed); test: as above
T10 construct: His-tagged (captured on anti-his surface); construct not described; also called hu-RIIb/c; FcgRIIb
T10 sequence (looked up): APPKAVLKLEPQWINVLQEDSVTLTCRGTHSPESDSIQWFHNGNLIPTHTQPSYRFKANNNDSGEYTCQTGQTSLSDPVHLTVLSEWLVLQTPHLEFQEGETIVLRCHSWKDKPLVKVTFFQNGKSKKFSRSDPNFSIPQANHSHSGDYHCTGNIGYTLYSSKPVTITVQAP

human GPRC5D nanodisc [5] = target: T11, human GPRC5D nanodisc (human, UniProt Q9NZD1 1-345); test: SPR, antibody captured by anti-human Fc, GPRC5D-nanodisc injected, 1:1 fit
T11 construct: Bought reagent; also called GPRC5D-nanodiscs (Acro, #GPD-H52D4)
T11 sequence (Q9NZD1 whole entry): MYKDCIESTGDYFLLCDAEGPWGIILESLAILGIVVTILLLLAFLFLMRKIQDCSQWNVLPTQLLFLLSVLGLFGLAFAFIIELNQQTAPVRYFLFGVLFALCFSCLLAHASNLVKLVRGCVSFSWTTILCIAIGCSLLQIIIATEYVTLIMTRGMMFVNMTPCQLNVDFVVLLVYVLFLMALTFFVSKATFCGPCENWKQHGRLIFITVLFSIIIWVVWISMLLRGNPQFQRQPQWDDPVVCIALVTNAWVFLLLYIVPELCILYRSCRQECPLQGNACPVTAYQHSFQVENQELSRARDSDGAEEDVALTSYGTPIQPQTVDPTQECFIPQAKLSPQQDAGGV

human GPRC5D nanodisc [6] = target: T11, human GPRC5D nanodisc; test: as above; remark: listed apart in the source
cyno GPRC5D nanodisc = cyno GPRC5D nanodisc (cynomolgus monkey); test: as above
[7] = target: T1, human GPRC5D (G-protein coupled …); test: flow cytometry on H929 cells
[8] = target: T1, human GPRC5D (G-protein coupled …); test: flow cytometry on MM1.R cells

T1 sequence (Q9NZD1 whole entry): as above

B1: GC5B1552.AFU (antibody, human IgG1, kappa)
chain: DKTHTCPPCPAPELLGGPSVFLFPPKPEDTLMISRTPEVTCVVVDVSHEDPEVKFNWYVDGVEVHNAKTKPREEQYNSTYRVVSVLTVLHQDWLNGKEYKCKVSNKALPAPIEKTISKAKGQPREPQVYTLPPSREEMTKNQVSLWCLVKGFYPSDIAVEWESNGQPENNYKTTPPVLDSDGSFFLYSKLTVDKSRWQQGNVFSCSVMHEALHNHYRQKSLSLSPGK
heavy: not shown
light: DIQMTQSPSSLSASVGDRVTITCRASQGIRNDLGWYQQKPGKAPKRLIYAASSLQSGVPSRFSGSGSGTEFTLTISSLQPEDFATYYCLQRNTYPLTFGGGTKVEIKRTVAAPSVFIFPPSDEQLKSGTASVVCLLNNFYPREAKVQWKVDNALQSGNSQESVTEQDSKDSTYSLSSTLTLSKADYEKHKVYACEVTHQGLSSPVTKSFNRGEC
notes: expressed in a FUT8 knockout CHO host, so the Fc glycan is afucosylated; also called GC5B1552.AFU.003; GC5B1552.AFU.001
Question: Which results are given for B1?
Answer: ADCC EC50, AMO-1 cells, primary healthy donor human NK cells [1]: 1.2 nM; ADCC EC50, H929 cells, primary healthy donor human NK cells [1]: 0.04 nM; ADCC EC50, MM.1R cells, primary healthy donor human NK cells [1]: 0.005 nM; ADCP EC50, H929 cells, M1-macrophages [1]: 0.05 nM; ADCP EC50, MM.1R cells, M1-macrophages [1]: 0.05 nM; CDC EC50, AMO-1 cells, CellTiter-Glo, 40% human serum [1]: 35.3 nM; CDC EC50, JIM-3 cells, CellTiter-Glo, 40% human serum [1]: 13.1 nM; CDC EC50, MM.1R cells, CellTiter-Glo, 40% human serum [1]: 8.77 nM; ADCC EC50 (nM), CD138+ MM patient plasma cells, Sample 1 [2]: 0.007 nM; ADCC EC50 (nM), CD138+ MM patient plasma cells, Sample 2 [2]: 0.09 nM; ADCC EC50 (nM), CD138+ MM patient plasma cells, Sample 6 [2]: 0.04 nM; ADCC EC50 (nM), CD138+ MM patient plasma cells, Sample 17 [2]: 0.64 nM; CDC EC50 (nM), CD138+ MM patient plasma cells, Sample 6 [2]: 40.5 nM; CDC EC50 (nM), CD138+ MM patient plasma cells, Sample 17 [2]: 35.5 nM; Fold increase in binding (vs wt IgG1 control) (cynomolgus FcγRI): 1.5 fold; Kd (cynomolgus FcγRI): 1 nM; koff (cynomolgus FcγRI): 0.000659 s⁻¹; kon (cynomolgus FcγRI): 647000 M⁻¹ s⁻¹; Fold increase in binding (vs wt IgG1 control) (cynomolgus FcγRIII): 33.2 fold; Kd (cynomolgus FcγRIII): 11.9 nM; koff (cynomolgus FcγRIII): 0.034 s⁻¹; kon (cynomolgus FcγRIII): 2.86e+06 M⁻¹ s⁻¹; Fold increase in binding (vs wt IgG1 control) (human FcγRI): 2.2 fold; Kd (human FcγRI): 1.3 nM; koff (human FcγRI): 0.000738 s⁻¹; kon (human FcγRI): 567000 M⁻¹ s⁻¹; Fold increase in binding (vs wt IgG1 control) [3]: 50.7 fold; Kd [3]: 75 nM; koff [3]: 0.167 s⁻¹; kon [3]: 2.24e+06 M⁻¹ s⁻¹; Fold increase in binding (vs wt IgG1 control) [4]: 111 fold; Kd [4]: 8.1 nM; koff [4]: 0.0232 s⁻¹; kon [4]: 2.85e+06 M⁻¹ s⁻¹; Fold increase in binding (vs wt IgG1 control) (cynomolgus FcγRIIa): 0.9 fold; Kd (cynomolgus FcγRIIa): 8820 nM; Fold increase in binding (vs wt IgG1 control) (cynomolgus FcγRIIb): 0.8 fold; Kd (cynomolgus FcγRIIb): 5400 nM; Fold increase in binding (vs wt IgG1 control) (human FcγRIIa): 2.5 fold; Kd (human FcγRIIa): 3710 nM; Fold increase in binding (vs wt IgG1 control) (human FcγRIIb/c): 1 fold; Kd (human FcγRIIb/c): 11600 nM; Kd (human GPRC5D nanodisc [5]): 84 nM; koff (human GPRC5D nanodisc [5]): 0.00148 s⁻¹; kon (human GPRC5D nanodisc [5]): 18000 M⁻¹ s⁻¹; Kd (human GPRC5D nanodisc [6]): 77 nM; koff (human GPRC5D nanodisc [6]): 0.00169 s⁻¹; kon (human GPRC5D nanodisc [6]): 22000 M⁻¹ s⁻¹; Kd (cyno GPRC5D nanodisc): 1880 nM; koff (cyno GPRC5D nanodisc): 0.0179 s⁻¹; kon (cyno GPRC5D nanodisc): 9520 M⁻¹ s⁻¹

B2: GC5B1552 (antibody)
chain: B1 chain
heavy: not shown
light: B1 light
notes: Monovalent JAWA (K248E/T437R) antibody as named without the .AFU suffix
Question: For B2, which EC50 [7] is on record?
Answer: 1.3 nM

Question: What about the EC50 [8] of the same binder?
Answer: 3.2 nM

Reference: patent US20260201029A1 (Janssen / Centocor, published 2026)
